In patent USRE39433 (MEDVET SCIENCE, dated 2006):

What was measured:
[1] = biological target: IL-3R α-chain co-expressed with mutant ^418AAAYA^422 βc on COS cells (human) (UniProt P26951); assay: Scatchard (LIGAND) of 125I-IL-3 on COS cells with α-chains and ^418AAAYA^422 βc; high affinity site 1
[2] = biological target: IL-3R α-chain co-expressed with G420A βc on COS cells (human) (UniProt P26951); assay: Scatchard (LIGAND) of 125I-IL-3 on COS cells with α-chains and G420A βc; high affinity site 1
[3] = biological target: IL-3R α-chain co-expressed with T419A βc on COS cells (human) (UniProt P26951); assay: Scatchard (LIGAND) of 125I-IL-3 on COS cells with α-chains and T419A βc; high affinity site 1
[4] = biological target: IL-3R α-chain co-expressed with N422A βc on COS cells (human) (UniProt P26951); assay: Scatchard (LIGAND) of 125I-IL-3 on COS cells with α-chains and N422A βc; high affinity site 1
[5] = biological target: IL-3R α-chain co-expressed with Y421A βc on cells (human) (UniProt P26951); assay: cell-based or functional assay
[6] = biological target: IL-3R α-chain co-expressed with R418A βc on COS cells (human) (UniProt P26951); assay: radioligand saturation binding on transfected COS cells
[7] = biological target: IL-3R α-chain co-expressed with mutant ^418AAAYA^422 βc on COS cells (human) (UniProt P26951); assay: as above
[8] = biological target: IL-3R α-chain co-expressed with R418A βc on COS cells (human) (UniProt P26951); assay: Scatchard (LIGAND) of 125I-IL-3 on COS cells with α-chains and R418A βc; high affinity site 1
[9] = biological target: IL-5R α-chain co-expressed with mutant ^418AAAYA^422 βc on COS cells (human) (UniProt Q01344); assay: Scatchard (LIGAND) of radio-iodinated IL-5 on COS cells with IL-5R α-chain and ^418AAAYA^422 βc; single receptor class
[10] = biological target: IL-5R α-chain co-expressed with Y421A βc on COS cells (human) (UniProt Q01344); assay: Scatchard (LIGAND) of radio-iodinated IL-5 on COS cells with IL-5R α-chain and Y421A βc; single receptor class
[11] = biological target: T1, IL-3R α-chain co-expressed with wild type βc on cells (human, UniProt P26951 19-378; P32927 17-897); assay: Scatchard (LIGAND) of 125I-IL-3 on COS cells with α-chains and wild type βc; high affinity site 1, low affinity site fixed at 50 nM
T1 construct: whole, on cells; The COS cells carried GM-CSFR and IL-3R α-chains together with βc; also called Wt βc

[12] = biological target: T2, IL-3R α-chain expressed on cells without βc (UniProt P26951 19-378, limits assumed); assay: radioligand saturation binding, COS cells with α-chain only; range of affinities observed
T2 construct: whole, on cells; also called α-chain only; hIL-3Rα
T2 sequence (P26951 19-378 limits assumed): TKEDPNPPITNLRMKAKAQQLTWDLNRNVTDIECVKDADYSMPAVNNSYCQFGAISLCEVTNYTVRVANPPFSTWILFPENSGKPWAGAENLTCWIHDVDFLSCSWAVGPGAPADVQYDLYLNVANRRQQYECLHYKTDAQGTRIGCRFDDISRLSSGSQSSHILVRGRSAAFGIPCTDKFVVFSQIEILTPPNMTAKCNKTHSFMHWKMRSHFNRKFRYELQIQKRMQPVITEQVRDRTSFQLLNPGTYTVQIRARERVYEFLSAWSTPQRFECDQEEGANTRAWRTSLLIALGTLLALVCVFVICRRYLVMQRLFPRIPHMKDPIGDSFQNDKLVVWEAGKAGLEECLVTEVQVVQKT

Sequence of IL-3R α-chain co-expressed with R418A βc on COS cells (human) (P26951 19-378, chain 1 of 2): as the sequence (P26951 19-378 limits assumed) above
Sequence of IL-3R α-chain co-expressed with R418A βc on COS cells (human) (P32927 17-897 R418A, chain 2 of 2, further chain): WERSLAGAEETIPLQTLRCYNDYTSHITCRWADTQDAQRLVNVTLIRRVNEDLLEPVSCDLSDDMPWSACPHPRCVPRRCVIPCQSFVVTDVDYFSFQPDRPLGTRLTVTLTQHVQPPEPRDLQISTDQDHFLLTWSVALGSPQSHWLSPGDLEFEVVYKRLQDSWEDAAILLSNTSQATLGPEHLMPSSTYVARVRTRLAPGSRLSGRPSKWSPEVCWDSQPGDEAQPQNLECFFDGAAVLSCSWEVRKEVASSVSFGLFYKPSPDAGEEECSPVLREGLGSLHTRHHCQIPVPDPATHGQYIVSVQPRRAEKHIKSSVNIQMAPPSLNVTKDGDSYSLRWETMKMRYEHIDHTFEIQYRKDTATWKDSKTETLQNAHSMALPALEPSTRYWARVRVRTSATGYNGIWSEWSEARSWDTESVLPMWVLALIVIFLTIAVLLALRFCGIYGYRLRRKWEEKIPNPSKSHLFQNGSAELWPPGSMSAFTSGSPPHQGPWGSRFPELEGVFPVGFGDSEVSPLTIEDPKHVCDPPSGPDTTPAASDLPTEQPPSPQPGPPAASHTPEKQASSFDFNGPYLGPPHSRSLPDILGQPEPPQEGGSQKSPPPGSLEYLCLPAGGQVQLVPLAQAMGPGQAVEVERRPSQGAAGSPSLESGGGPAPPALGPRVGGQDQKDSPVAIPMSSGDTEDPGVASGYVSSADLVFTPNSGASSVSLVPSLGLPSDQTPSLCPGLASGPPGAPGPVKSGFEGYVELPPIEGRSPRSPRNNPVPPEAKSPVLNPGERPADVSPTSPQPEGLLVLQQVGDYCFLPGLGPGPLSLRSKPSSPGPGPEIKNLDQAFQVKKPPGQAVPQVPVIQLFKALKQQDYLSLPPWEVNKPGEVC
Sequence of IL-3R α-chain co-expressed with mutant ^418AAAYA^422 βc on COS cells (human) (P26951 19-378, stated change not applied, chain 1 of 2): as the sequence (P26951 19-378 limits assumed) above
Sequence of IL-3R α-chain co-expressed with mutant ^418AAAYA^422 βc on COS cells (human) (P32927 other isoform, or with tags, fused parts or gaps mutant, chain 2 of 2, further chain): as the sequence (P32927 17-897 R418A, chain 2 of 2, further chain) above, with T403A, G404A, N406A counted along it
Sequence of IL-5R α-chain co-expressed with Y421A βc on COS cells (human) (Q01344 21-420, chain 1 of 2): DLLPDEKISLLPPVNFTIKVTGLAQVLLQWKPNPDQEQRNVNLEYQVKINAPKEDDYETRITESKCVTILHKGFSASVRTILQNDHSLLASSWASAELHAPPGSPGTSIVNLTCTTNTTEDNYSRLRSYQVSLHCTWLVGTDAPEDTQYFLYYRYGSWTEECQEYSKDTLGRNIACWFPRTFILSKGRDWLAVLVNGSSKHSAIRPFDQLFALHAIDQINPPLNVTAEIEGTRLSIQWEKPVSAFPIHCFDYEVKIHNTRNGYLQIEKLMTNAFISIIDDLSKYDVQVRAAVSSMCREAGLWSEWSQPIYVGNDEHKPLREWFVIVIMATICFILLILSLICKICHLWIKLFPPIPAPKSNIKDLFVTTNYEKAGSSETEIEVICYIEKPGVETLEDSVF
Sequence of IL-5R α-chain co-expressed with Y421A βc on COS cells (human) (P32927 17-897 Y421A, chain 2 of 2, further chain): as the sequence (P32927 17-897 R418A, chain 2 of 2, further chain) above, with A402R, Y405A counted along it
Sequence of IL-5R α-chain co-expressed with mutant ^418AAAYA^422 βc on COS cells (human) (Q01344 21-420, stated change not applied, chain 1 of 2): as the sequence (Q01344 21-420, chain 1 of 2) above
Sequence of IL-5R α-chain co-expressed with mutant ^418AAAYA^422 βc on COS cells (human) (P32927 other isoform, or with tags, fused parts or gaps mutant, chain 2 of 2, further chain): as the sequence (P32927 17-897 R418A, chain 2 of 2, further chain) above, with T403A, G404A, N406A counted along it
Sequence of IL-3R α-chain co-expressed with Y421A βc on cells (human) (P26951 19-378, chain 1 of 2): as the sequence (P26951 19-378 limits assumed) above
Sequence of IL-3R α-chain co-expressed with Y421A βc on cells (human) (P32927 17-897 Y421A, chain 2 of 2, further chain): as the sequence (P32927 17-897 R418A, chain 2 of 2, further chain) above, with A402R, Y405A counted along it
T1 sequence (P26951 19-378, chain 1 of 2): as the sequence (P26951 19-378 limits assumed) above
T1 sequence (P32927 17-897, chain 2 of 2): as the sequence (P32927 17-897 R418A, chain 2 of 2, further chain) above, with A402R counted along it
Sequence of IL-3R α-chain co-expressed with N422A βc on COS cells (human) (P26951 19-378, chain 1 of 2): as the sequence (P26951 19-378 limits assumed) above
Sequence of IL-3R α-chain co-expressed with N422A βc on COS cells (human) (P32927 17-897 N422A, chain 2 of 2, further chain): as the sequence (P32927 17-897 R418A, chain 2 of 2, further chain) above, with A402R, N406A counted along it
Sequence of IL-3R α-chain co-expressed with T419A βc on COS cells (human) (P26951 19-378, chain 1 of 2): as the sequence (P26951 19-378 limits assumed) above
Sequence of IL-3R α-chain co-expressed with T419A βc on COS cells (human) (P32927 17-897 T419A, chain 2 of 2, further chain): as the sequence (P32927 17-897 R418A, chain 2 of 2, further chain) above, with A402R, T403A counted along it
Sequence of IL-3R α-chain co-expressed with G420A βc on COS cells (human) (P26951 19-378, chain 1 of 2): as the sequence (P26951 19-378 limits assumed) above
Sequence of IL-3R α-chain co-expressed with G420A βc on COS cells (human) (P32927 17-897 G420A, chain 2 of 2, further chain): as the sequence (P32927 17-897 R418A, chain 2 of 2, further chain) above, with A402R, G404A counted along it

## Human interleukin (IL)-3 (from UniProt P08700 20-152) (ligand)
[1]
  Kd: 0.113 nM
[2]
  Kd: 0.196 nM
[3]
  Kd: 0.151 nM
[4]
  Kd: 0.08 nM
[5]
  STAT5-L activation (EMSA with STAT5 probe, phosphorimager) in transfected Jurkat cells; concentration for half maximal activation: > 3 µM
[6]
  fold reduction of high affinity binding against wild type βc: 2 to 3 fold
[7]
  fold reduction of affinity against wild type high affinity binding: 3 fold
[8]
  Kd: 0.511 nM

## Human interleukin IL-5 (from UniProt P05113 20-134) (ligand)
[9]
  Kd: 0.71 nM
[10]
  Kd: 1.86 nM

B1: Human interleukin (IL)-3 (ligand, UniProt P08700 20-152, looked up)
chain: APMTQTTPLKTSWVNCSNMIDEIITHLKQPPLPLLDFNNLNGEDQDILMENNLRRPNLEAFNRAVKSLQNASAIESILKNLLPCLPLATAAPTRHPIHIKDGDWNEFRRKLTFYLKTLENAQAQQTTLSLAIF
modifications: radio-iodinated (125I) in the saturation binding studies
notes: unlabelled in the STAT5-L assays on Jurkat cells; also called ^125I-IL-3
[11]
  Kd: 0.141 nM
[12]
  Kd: 20 to 100 nM
